Measurements as given in publication PMC4629521.
Blank lines part the entries; values can stand above or below the substance they belong to.

Columns and labels:
[1] = molecular target: P1Ara, TOMP1 partially dearabinosylated by alpha-L-arabinofuranosidase (tomato); test: cross-linking + SEC
Q9FS16 = test: cross-linking + SEC
[2] = molecular target: P1pH2, TOMP1 partially dearabinosylated by pH 2.0 HCl (tomato); test: cross-linking + SEC
[3] = molecular target: RSH, monomeric extensin from Arabidopsis (native) (Arabidopsis) (UniProt Q9FS16); test: cross-linking + SEC
[4] = molecular target: TOMP1, tomato extensin precursor 1 (native) (tomato); test: cross-linking + SEC
[5] = molecular target: RSHAra, RSH partially dearabinosylated by alpha-L-arabinofuranosidase (Arabidopsis) (UniProt Q9FS16); test: cross-linking + SEC
[6] = molecular target: RSHpH2, RSH partially dearabinosylated by pH 2.0 HCl (Arabidopsis) (UniProt Q9FS16); test: cross-linking + SEC

Substance: P1Ara, TOMP1 partially dearabinosylated by alpha-L-arabinofuranosidase
- monomer peak area loss (5~30 min XL) (cross-linking + SEC): 24.9%

Substance: RSHpH2, RSH partially dearabinosylated by pH 2.0 HCl
- monomer peak area loss (5~30 min XL) (Q9FS16): 74.2%

Substance: RSH, monomeric extensin from Arabidopsis (native)
- monomer peak area loss (5~30 min XL) (Q9FS16): 80.3%

Substance: P1pH2, TOMP1 partially dearabinosylated by pH 2.0 HCl
- monomer peak area loss (5~30 min XL) (cross-linking + SEC): 54.2%

Substance: TOMP1, tomato extensin precursor 1 (native)
- monomer peak area loss (5~30 min XL) (cross-linking + SEC): 73.9%

Substance: RSHAra, RSH partially dearabinosylated by alpha-L-arabinofuranosidase
- monomer peak area loss (5~30 min XL) (Q9FS16): 40.1%

Substance: RSHpH2, RSH partially dearabinosylated by pH 2.0 HCl (from UniProt Q9FS16 28-431) (natural protein)
- initial cross-linking rate [6]: 223 µg/mL⋅min

The next lines start with the values.

- initial cross-linking rate [1]: 28.5 µg/mL⋅min
Substance: P1Ara, TOMP1 partially dearabinosylated by alpha-L-arabinofuranosidase (natural protein)

- initial cross-linking rate [2]: 95.3 µg/mL⋅min
Substance: P1pH2, TOMP1 partially dearabinosylated by pH 2.0 HCl (natural protein)

- initial cross-linking rate [3]: 269 µg/mL⋅min
Substance: RSH, monomeric extensin from Arabidopsis (native) (from UniProt Q9FS16 28-431) (natural protein)

- initial cross-linking rate [4]: 213 µg/mL⋅min
Substance: TOMP1, tomato extensin precursor 1 (native) (natural protein)

- initial cross-linking rate [5]: 85 µg/mL⋅min
Substance: RSHAra, RSH partially dearabinosylated by alpha-L-arabinofuranosidase (from UniProt Q9FS16 28-431) (natural protein)
